Data: US20200347135A1 (published 2020)
Read-outs that look alike come from different tables or passages of the source.

B1: AS25222_HCAb (antibody, V domains shown)
VH: QIQLVESGGGSVQAGGSLRLSCAVTGISISPDCMGWFRQAPGKKREAVATIFTNTASTRYGDSVKGRFTSSQGNGKNTLYLQMDSLNVDDTATYYCAARYTGGNCFNLEPLAWHFWGQGTQVTVSS
B2: AS06962 sdAb (VHH)
VHH: QVHLVDSGGGLVQPGGSLRLSCAASGSITSRNTMGWYRQVPGKQRELVALIATFVTHYADSVKGRFTISRDNARKMVFLEMNSLQPEDTGAYYCYVDVSPYWGRGTQVTVSS
B3: AS25115_HCAb (antibody, V domains shown)
VH: QVHLVESGGASVQAGGSLRLSCAATAYTASNYCMGWFRQSPGKEREAVASINDDGVTSYADSVKGRFTISQDSAKKTLYLQMNRLKPEDTAMYYCAATPDGYCYAERLSRWRYEFWGQGTQVTVSS
B4: AS24984_HCAb (antibody, V domains shown)
VH: QVHLMESGGGSVPSGGSLRLSCAVSGSGYSYSRGCFAWFQQRPGKEREGVAIINMDGHTRYSDSVQGRFIISQDKAKNTLHLQMNTLRPDDTAMYYCAYDRSQCYVLSDRLRLPGTFSDWGQGTQVTVSS
B5: AS25071_HCAb (antibody, V domains shown)
VH: EVQLAESGGGSVQSGGSLRLSCAVSGSGYSYSRGCFAWFQQRPGKEREGVAIINSDGHTAYSDSVQGRFIISQDKAKNTLYLQMNSLKPDDTAMYYCAYDRSQCYVLRDRLRLPDTFTDWGQGTQVTVSS
B6: AS25037_HCAb (antibody, V domains shown)
VH: EVQLAESGGGSVQAGGSLKLSCLASQWISSDCGMAWYRQAPGKERELVSRISSDDTTTYADSVKGRFTISQDSAKNTLYLQMNKLKTEDTGVYYCAAEAKSTITSLCYPLNYWGQGTQVTVSS
B7: AS25064_HCAb (antibody, V domains shown)
VH: QVQLVESGGGSVQAGGSLRLTCAATGYSWRPDCMGWYRQAAEKEREGVAVIDADGITSYADAAKGRFTISRDNNKITLYLQMLKPDDTGMYVCVVGWRVSSGGNCQFNDYWGQGTQVTVSS
B8: AS25156_HCAb (antibody, V domains shown)
VH: EVQLVESGGGSVQSGGSLRLSCAVSGSGYSYSRGCFAWFQQRPGKEREGVAIINSDGHTRYSDSVQGRFIISQDKAKNTLYLQMNSLKPDDTAMYYCAYDCSQCYVLRDRLRLPDTFTDWGQGTQVTVSS
B9: AS25396_HCAb (antibody, V domains shown)
VH: QVHLMESGGGSVQAGGSLRLSCVVSGISISPDCMGWFRQAPGKKREAVATIFTNTRRTRYGDSVKGRVTSSQGNAKNTLYLKMDNLRHDDTATYYCAARYTGGDCFNLDPLSWRFWGQGTQVTVSS
B10: A31543 sdAb (VHH)
VHH: QVQLVESGGGKVQPGGSLRLSCAASGGTLDYYAIGWFRQAPGKEREAVSCISSSDGSTYYADSVKGRFTISRDNAKNTVYLQMNSLKPGDTAVYHCATDRACGSSWLGAESWAQGTQVTVSS
B11: AS25067_HCAb (antibody, V domains shown)
VH: QVHLMESGGGAVQTGGSLRLSCAVSGISISPDCMGWFRQAPGKKREAVTTIFANTGSARYGDSVKGRFTSSQGNAKNTLYLQMDSVKLDDTGTYYCAARFTGGDCFDHQPLAWRFWGQGTQVTVSS
B12: AS25117_HCAb (antibody, V domains shown)
VH: EVQLAESGGGSVQAGGSLRLSCVISGTSISPDCMGWFRQAPGKKREAVMSIFTNTGSTRYGDSVKGRFTSSQGNAKNTLYLQMDSLKLDDTATYYCAARYTGGDCFNLEPLAWRFWGQGTQVTVSS
B13: AS25457_HCAb (antibody, V domains shown)
VH: QVQLVESGGGSVQAGGSLRLSCAVSGISISPDCMGWFRQAPGKKREAVATIFTNTRSTRYGDSVKGRFTSSQGNAKNTLYLQMDSLKLDDTATYYCAARYTGGDCFNLEPVAWRFWGQGTQVTVSS
B14: AS25164_HCAb (antibody, V domains shown)
VH: EVQLVESGGGSVQSGGSLRLSCAVSGSGYSYNRGCFAWFQQRPGKEREGVAIINSDGHTTYGDSVQGRFIISQDKAKNTLDLQMNSLKPDDTAMYYCAYDRNQCYVLRDRLRLPDTFTDWGQGTQVTVSS
B15: AS25119_HCAb (antibody, V domains shown)
VH: QVQLVESGGGSVQAGGPLRLTCAATGYSWRPDCMGWYRQAAEKEREGVAVIDADGITSYADAAKGRFTISRDNNNITLYLQMLKPDDTGMYVCVIGWRVSSGGNCQFNDYWGQGTQVTVSS
B16: AS25435_HCAb (antibody, V domains shown)
VH: QVQLVESGGGSVQAGGSLRLSCAATAYTASFYCMGWFRQAPGKEREAVASINDDGVTMYADSVKGQFTISQDSATKTLYLQMNRLKPEDTAMYYCAATPEGYCYAERLSTWRYTFWGQGTQVTVSS
B17: AS15892 sdAb (VHH)
VHH: QIQLVESGGGSVQAGGSLRLSCAASGFTDSSYCGAWFRQVPGKEREGVAIIDRYGGTMYKDSVKGRFTISKDTAKNILYLQMNSLKLEDTAMYYCAAAEYRGSSCDAESGYWGQGTQVTVSS
B18: AS15883 sdAb (VHH)
VHH: QVHLMESGGGSVQAGGSLTLSCAASVFTDSNYCMAWFRQVPGKEREGVAIIDRYGGTMYKDSVKGRFTISKDTAKNILYLQMNSLKLEDTAMYYCAAAGYRGSSCDADSGYWGQGTQVTVSS
B19: AS25149_HCAb (antibody, V domains shown)
VH: QVQLVESGGGSVQSGGSLKLSCAVSGSGYSYSRGCFAWFQQRPGKEREGVAIINSDGHTRYSDSVQGRFIISQDKAKNTLYLQMNSLKPDDAAMYYCAYDRNQCYVLLDRLRLPGTFSDWGQGTQVTVSS
B20: AS15881 sdAb (VHH)
VHH: QVQLVESGGGSVQAGGSLRLSCAASGFTDSSYCGAWFRQVPGKEREGVAIIDRYGGTMYKDSVKGRFTISKDTAKNILYLQMNSLKLEDTAMYYCAAAEYRGSSCDAESGYWGQGTQVTVSS
B21: AS15899 sdAb (VHH)
VHH: QVQLVESGGGSVQAGGSLRLSCAASGYTAGSLCMGWFRQAPGKEREGVAAIYTGGGSTYYADSVKGRFTISQDNAKNTVYLQMNSLKPEDTAQYYCGAGSREDYCDRGYIYDHWGQGTQVTVSS
B22: AS15872 sdAb (VHH)
VHH: QVQLVESGGGLVQPGGSLTLSCAASGFTFSTAAMSWVRQVPEEGLEWVASIDSSGSRTYYAGSVKGRFTISRDNAKNTLYLQLNSLKAEDTAMYYCAKDHMSWLPRGQGTQVTVSS

Key:
[1] = target: T1, human PD-1 expressed on cells (UniProt Q15116 25-288); experiment: FACS ligand competition (PD-L1 Fc)
[2] = target: T1, human PD-1 expressed on cells; experiment: FACS binding
[3] = target: recombinant PD-1 extracellular domain (ECD) protein (UniProt Q15116 25-170); experiment: SPR
[4] = target: T1, human PD-1 expressed on cells; experiment: FACS competition with PD-L1 Fc
[5] = target: T1, human PD-1 expressed on cells; experiment: FACS binding; remark: listed apart in the source
[6] = target: T1, human PD-1 expressed on cells; experiment: FACS binding; remark: listed apart in the source

recombinant PD-1 extracellular domain (ECD) protein, sequence (Q15116 25-170): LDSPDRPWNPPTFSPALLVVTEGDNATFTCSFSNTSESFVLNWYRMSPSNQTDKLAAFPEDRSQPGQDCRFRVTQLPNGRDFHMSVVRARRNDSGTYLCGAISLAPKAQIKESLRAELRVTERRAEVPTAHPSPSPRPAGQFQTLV
T1 sequence (Q15116 25-288): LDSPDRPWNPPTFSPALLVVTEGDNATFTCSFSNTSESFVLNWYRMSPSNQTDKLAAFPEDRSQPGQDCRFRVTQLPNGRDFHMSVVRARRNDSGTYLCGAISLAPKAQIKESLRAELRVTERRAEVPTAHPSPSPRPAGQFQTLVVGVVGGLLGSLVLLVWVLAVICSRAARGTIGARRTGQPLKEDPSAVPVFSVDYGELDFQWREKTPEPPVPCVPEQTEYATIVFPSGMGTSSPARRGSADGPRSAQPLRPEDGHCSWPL

Binder	IC50 [1] [nM]	EC50 [2] [nM]	other results
B1	1.66	4.59	
B2			Kd [3]: 0.454 nM; IC50 [4]: 193 nM; EC50 [5]: 79.2 nM
B3	2.15	4.06	
B4	4.59	7.22	
B5	2.41	4.74	
B6	6.58	6.62	
B7	2.91	5.46	
B8	6.04	9.18	EC50 [6]: 9.18 nM
B9	1.34	3.84	
B10			IC50 [4]: 21.1 nM; EC50 [5]: 41.2 nM
B11	3.51	4.96	
B12	2.06	3.22	
B13	2.44	4.04	
B14	3.25	6.15	
B15	1.57	3.29	
B16	2.7	4.91	
B17			Kd [3]: 2.67 nM
B18			Kd [3]: 2.78 nM
B19	8	10.7	
B20			Kd [3]: 2.31 nM
B21			Kd [3]: 3.22 nM
B22			Kd [3]: 14.5 nM
